Where two headings read alike, the source gives them in different places.
Legend:
FGF2 [1] = target: FGF2 (UniProt P09038); conditions: cited from earlier work
FGF2 [2] = target: FGF2 (UniProt P09038); assay: SPR; BIAcore 3000; […] (31.25–[…]), HBS-EP buffer; 1:1 Langmuir fit
FGF9 [3] = target: FGF9 (UniProt P31371); assay: as above
FGF2 [4] = target: FGF2 (UniProt P09038); assay: as above; remark: listed apart in the source
FGF9 [5] = target: FGF9 (UniProt P31371); assay: as above; remark: listed apart in the source

Row | Substance | Kd (FGF2 [1]) [nM] | Kd (FGF2 [2]) [nM] | koff (FGF2 [2]) [s⁻¹] | kon (FGF2 [2]) [M⁻¹ s⁻¹] | Kd (FGF9 [3]) [nM] | koff (FGF9 [3]) [s⁻¹] | kon (FGF9 [3]) [M⁻¹ s⁻¹] | Kd (FGF2 [4]) [nM] | koff (FGF2 [4]) [s⁻¹] | kon (FGF2 [4]) [M⁻¹ s⁻¹] | Kd (FGF9 [5]) [nM] | koff (FGF9 [5]) [s⁻¹] | kon (FGF9 [5]) [M⁻¹ s⁻¹]
1 | FGFR2b Loop 2,3 (from UniProt P21802) | 12.8 | – | – | – | – | – | – | – | – | – | – | – | –
2 | FGFR3b Loop 2,3 (domain or fragment) | – | 13.5 | 6.69e-05 | 4980 | 29.9 | 6.53e-05 | 2190 | 12.3 | 0.000159 | 16500 | 31.2 | 9.25e-05 | 2920

Reference: PMC3656097
